In US12582683B2, “Prostate neoantigens and their uses” (Jansen Biotech, Inc., priority 2019, dated 2026):

Columns and labels:
HLA-A*01:01 = HLA-A*01:01 (Homo sapiens, UniProt P04439, A114D/A174V/A182V/D101N/D185E/E176A/E190D/L180R/Q94H/R68K/S129P/T187R/V100A/V91M/W191G); assay: In vitro binding of neoantigens to class I MHC (UV peptide exchange, HLA class I ELISA); details: 100% = same binding affinity as positive control peptide
Procedure: (§1) In Vitro Binding of Neoantigens to Class I MHC
(§2) The 9 mer peptides identified by bioinformatics analysis were analyzed for their binding propensities to 6 common HLA class I alleles (HLA-A*01:01, A*02:01, A*03:01, A*24:02, B*07:02, B*08:01). The principle of the method is briefly described below and consists of two parts, one involving exchange of peptide with a positive control induced by Ultraviolet (UV) radiation, and the second is an enzyme immunoassay to detect stable HLA-peptide and empty HLA complexes.
(§3) HLA-bound peptides are critical for the stability of the HLA complex.
(§4) The exchange efficiency between the peptide of interest and Pos was analyzed using an HLA class I ELISA. The combined technologies allowed the identification of ligands for an HLA molecule of interest which are potentially immunogenic.
(§5) The UV control represented UV-irradiation of conditional HLA class I complex in the absence of a rescue peptide. […] To this end streptavidin was bound onto polystyrene microtiter wells. After washing and blocking, HLA complex present in exchange reaction mixtures or ELISA controls was captured by the streptavidin on the microtiter plate via its biotinylated heavy chain. Non-bound material was removed by washing. Subsequently, horseradish peroxidase (HRP)-conjugated antibody to human B2M was added. […] In the latter case B2M was removed during the washing step. After removal of non-bound HRP conjugate by washing, a substrate solution was added to the wells. A coloured product formed in proportion to the amount of intact HLA complex present in the samples. After the reaction was terminated by the addition of a stop solution, absorbance was measured in a microtiter plate reader. […] Suboptimal HLA binding of peptides with a moderate to low affinity for HLA class I molecules can also be detected by this ELISA technique (Rodenko, B et al. (2006) Nature Protocols 1: 1120-32).
(§6) Binding of select neoepitopes to HLA-A*01:01, HLA-A* 02:01, HLA-A* 03:01, HLA-A*24:02, HLA-1B*07:02 and HLA-1B*08:01 was evaluated using the assay described in Example 1. […] As a criterion for further evaluation, peptides with an exchange rate of at least 10% with the corresponding Pos peptide for at least one of the 6 HLA alleles that we considered for further evaluation. […] Higher percentages correspond to stronger binding to the HLA allele.

HLA-B*07:02 = HLA-B*07:02 (Homo sapiens, UniProt P01889); assay: as above; details: 100% = same binding affinity as positive control peptide
Procedure: as §1, §2, §3, §4, §5, §6

HLA-A*24:02 = HLA-A*24:02 (Homo sapiens, UniProt P04439, D101N/D140Y/D185E/E176V/E190D/F33S/G103R/G107R/I119L/I121M/I306V/K335N/L105A/L180Q/L300P/N151K/N90K/Q86E/Q94H/R106L/R138H/R89G/T104I/T345S/V100E/W191G/Y123F); assay: as above; details: 100% = same binding affinity as positive control peptide
Procedure: as §1, §2, §3, §4, §5, §6

HLA-A*03:01 = HLA-A*03:01 (Homo sapiens, UniProt P04439); assay: as above; details: 100% = same binding affinity as positive control peptide
Procedure: as §1, §2, §3, §4, §5, §6

HLA-A*02:01 = HLA-A*02:01 (Homo sapiens, UniProt P04439, D140Y/D185E/D98H/E176V/E277Q/G131W/G231S/I119V/I121R/I166T/I218V/L300P/L318F/N151K/N90K/P208A/P217A/Q86G/Q94H/R138H/R169H/T345S); assay: as above; details: 100% = same binding affinity as positive control peptide
Procedure: as §1, §2, §3, §4, §5, §6

[1] = system: CD8+ T cells in PBMCs from patients with metastatic castrate-resistant prostate cancer; assay: Patient PBMC restimulation assay (in vitro immunogenicity of neoantigens); assay type: cell-based, human; parameters: Maximum frequency of TNFα+IFNγ+CD8+ T cells: unit not given here; details: for Maximum fold change over: fold change over negative control, highest across the PBMC donors evaluated, 9 mer peptide; for Maximum frequency of TNFα+IFNγ+CD8+ T cells: greatest frequency among all tested PBMC donors, negative control 0.011-0.8
Procedure: In Vitro Immunogenicity Assessment of Neoantigens (“Patient PBMC Restimulation Assay”)
PBMCs from human patients with metastatic castrate-resistant prostate cancer were thawed using media (RPMI 1640 supplemented with Glutamax, 10% HI FBS, and 1× Sodium Pyruvate). Cells were counted and plated in a 96 well round bottom microplate at a concentration of 250,000 viable cells per well. Lyophilized peptides were solubilized in 100% DMSO and diluted in media to 10 μg/mL. Neoantigen peptides were added in equal volume to PBMCs for a final concentration of 5 μg/mL. CEF Peptide Pool “Plus” (Cellular Technologies, Ltd.) was utilized as a positive control and DMSO at the same final concentration as the experimental peptides was utilized as a negative control. Human IL-15 (Peprotech) was added to all wells at final concentration of 10 ng/mL.
Plates were incubated at 37° C. (5% CO2) for a total of 13 days. Media was refreshed every 2 days with IL-15 (10 ng/mL final concentration) and IL-2 (R&D systems, 10 IU/mL final concentration). On day 12, PBMCs were re-stimulated with identical experimental peptides or controls, at same concentration as peptide stimulation on Day 1. After 1-hour incubation, protein Inhibitor Cocktail (eBioscience) was added to every well and plate was incubated overnight.
On day 13, cells were stained for intracellular flow cytometry analysis. The cells were washed with PBS and stained with Live/Dead Fixable Aqua Dead Cell stain (Thermo-Fisher). Following the live/dead stain, cells were blocked using Biotin-Free Fe Receptor Blocker (Accurate Chemical & Scientific Corp). Extracellular cellular flow panel (1 μL/antibody per well in 50 μL) consisted of CD3 PerCP-Cy5.5 (Biolegend), CD4 BV421 (Biolegend), and CD8 APC-Cy7 (Biolegend). After extracellular staining, cells were fixed using Foxp3/Transcription Factor Staining Buffer Set (eBioscience) and stained for intracellular proteins (1:50 dilution) using TNFα FITC (R&D Systems) and IFNγ BV785 (Biolegend). Cells were washed and resuspended in stain buffer and analyzed using a BD Celesta flow cytometer.
Flow cytometry cell staining analysis was completed using FlowJo v10. Cells were gated on live, singlet, CD3+ cells. The CD8+ T cells were analyzed for TNFα/IFNγ expression and the frequency of double positive TNFα/IFNγ CD8+ T cells was recorded. Responses were assessed to be positive when the frequency of double positive TNFα/IFNγ CD8+ T cells due to stimulation with an experimental peptide was increased greater than or equal to 2-fold over the DMSO only negative control for that patient. Peptides were analyzed in 1 to 7 patient samples.
The 9 mer fragments shown in Table 13 were assessed for their ability to activate T cells using the Patient PBMC restimulation assay described in Example 1 using TNFα and IFNγ production by CD8^+ T cells as a readout. Self-antigens shown in Table 15 were also used in the assays. […] PBMCs from ten patients were evaluated.

YEAGMTLGEKFRVGNCKHLKMTRP (listed as Homo sapiens) [Neoantigen P82, AR-V7]
Exchange rate with Pos peptide, HLA-A*01:01 (HLA-A*01:01): 1.5% | Exchange rate with Pos peptide, HLA-B*07:02 (HLA-B*07:02): 12.9% | Exchange rate with Pos peptide, HLA-A*24:02 (HLA-A*24:02): −0.1% | Exchange rate with Pos peptide, HLA-A*03:01 (HLA-A*03:01): 58.1% | Exchange rate with Pos peptide, HLA-A*02:01 (HLA-A*02:01): 6.3% | Maximum fold change over [1]: 3.46 | Maximum frequency of TNFα+IFNγ+CD8+ T cells [1]: 0.970

MMAEHSVHVPKILSGK (MMAEIISVHVPKILSGK; listed as Homo sapiens) [Neoantigen P58, AR (Q903H)]
Exchange rate with Pos peptide, HLA-A*01:01 (HLA-A*01:01): 2.5% | Exchange rate with Pos peptide, HLA-A*24:02 (HLA-A*24:02): 0.2% | Exchange rate with Pos peptide, HLA-A*03:01 (HLA-A*03:01): 32.5% | Exchange rate with Pos peptide, HLA-A*02:01 (HLA-A*02:01): 11.8% | Maximum frequency of TNFα+IFNγ+CD8+ T cells [1]: 5.370

MFENGCYLGRQKRFKCE (listed as Homo sapiens) [Neoantigen P61, FOXAl.p.R261G]
Exchange rate with Pos peptide, HLA-A*01:01 (HLA-A*01:01): 1.7% | Exchange rate with Pos peptide, HLA-A*24:02 (HLA-A*24:02): 90.3% | Exchange rate with Pos peptide, HLA-A*03:01 (HLA-A*03:01): 2.1% | Exchange rate with Pos peptide, HLA-A*02:01 (HLA-A*02:01): 5.8% | Maximum frequency of TNFα+IFNγ+CD8+ T cells [1]: 0.084

GYLRMQGLMAQRLLLR (listed as Homo sapiens) [Neoantigen P97, FOXRED2-TXN2]
Exchange rate with Pos peptide, HLA-A*01:01 (HLA-A*01:01): 2.5% | Exchange rate with Pos peptide, HLA-B*07:02 (HLA-B*07:02): 7% | Exchange rate with Pos peptide, HLA-A*24:02 (HLA-A*24:02): 0.1% | Exchange rate with Pos peptide, HLA-A*03:01 (HLA-A*03:01): 39% | Exchange rate with Pos peptide, HLA-A*02:01 (HLA-A*02:01): 4.6% | Maximum fold change over [1]: 4.55 | Maximum frequency of TNFα+IFNγ+CD8+ T cells [1]: 0.160

SLYHREKQLIAMDSAI (listed as Homo sapiens) [Neoantigen P22, 5LC45A3-ELK4]
Exchange rate with Pos peptide, HLA-A*01:01 (HLA-A*01:01): 4.4% | Exchange rate with Pos peptide, HLA-B*07:02 (HLA-B*07:02): 8.3% | Exchange rate with Pos peptide, HLA-A*24:02 (HLA-A*24:02): 0% | Exchange rate with Pos peptide, HLA-A*03:01 (HLA-A*03:01): 4.8% | Exchange rate with Pos peptide, HLA-A*02:01 (HLA-A*02:01): 46.9% | Maximum fold change over [1]: 5.00 | Maximum frequency of TNFα+IFNγ+CD8+ T cells [1]: 0.120

B1: WTPIPVLTRWPLPHPPPWRRATSCRMARSSPSATSGSSVRRRCSSLPSWVWNLAASTRPRSTPS (peptide, listed as Homo sapiens)
chain: WTPIPVLTRWPLPHPPPWRRATSCRMARSSPSATSGSSVRRRCSSLPSWVWNLAASTRPRSTPS
notes: TMEM222-LOC644961
Exchange rate with Pos peptide, HLA-A*01:01 (HLA-A*01:01): 5.2% | Exchange rate with Pos peptide, HLA-B*07:02 (HLA-B*07:02): 91.3% | Exchange rate with Pos peptide, HLA-A*24:02 (HLA-A*24:02): 0.1% | Exchange rate with Pos peptide, HLA-A*03:01 (HLA-A*03:01): 4.1% | Exchange rate with Pos peptide, HLA-A*02:01 (HLA-A*02:01): 8.2% | Maximum fold change over [1]: 5.00 | Maximum frequency of TNFα+IFNγ+CD8+ T cells [1]: 0.480

B2: VFFKRAAEGFFRMNKLKESSDTNPKPYCMAAPMGLTENNRNRKKSYRETNLKAVSWPLNHT [P76] (peptide, listed as Homo sapiens)
chain: VFFKRAAEGFFRMNKLKESSDTNPKPYCMAAPMGLTENNRNRKKSYRETNLKAVSWPLNHT
notes: AR-V3
Exchange rate with Pos peptide, HLA-A*01:01 (HLA-A*01:01): 0.1% | Exchange rate with Pos peptide, HLA-B*07:02 (HLA-B*07:02): 91.5% | Exchange rate with Pos peptide, HLA-A*24:02 (HLA-A*24:02): −0.5% | Exchange rate with Pos peptide, HLA-A*03:01 (HLA-A*03:01): 6% | Exchange rate with Pos peptide, HLA-A*02:01 (HLA-A*02:01): 85.9% | Maximum fold change over [1]: 2.30 | Maximum frequency of TNFα+IFNγ+CD8+ T cells [1]: 0.170 | Immunogenic ([1]; patient PBMC restimulation, CD8+ T cells): Yes
